assay: In vitro functional identification of C-glycosyltransferases by HPLC, phloretin as glycosyl receptor; type: biochemical; details: 0.1 mM phloretin, 0.3 mM UDP glucose, crude enzyme, 37° C., 2 h, HPLC (FIG. 1A)
Procedure: The recombinant plasmid was transformed into competent cells of Escherichia coli BL21 (DE3), and cultured overnight at 37° C. in solid LB medium (kanamycin 50 μg/mL). Single colony was transferred to a 2 mL LB liquid medium (containing 50 μg/ml kanamycin) and incubated overnight. The bacterial fluid was transferred to a new 100 ml LB liquid medium with antibiotics and incubated at 37° C. and 250 r/min until OD600 reached 0.5-0.6. The culture was cooled down to 16° C. in a water bath. Then inducer IPTG was added at a final concentration of 0.1 mM. The mixture was cultured at 16° C. for low temperature induction and 180 r/min for 20 h. The BL21(DE3) recombinant strain carrying the pET28a empty plasmid was used as a blank control, and the culture operation was the same as above. The bacteria were harvested by centrifugation (6000 r/min, 5 min), re-suspended in 1 mL of lysis buffer Buffer A (20 mM Tris-HCl, pH 8.0; 100 mM NaCl), and DNase was added to a final concentration of 5 μg/mL, Mg^2+ to a final concentration of 2 mM; protease inhibitor PMSF to a final concentration of 1 mM; the bacteria were incubated on ice for 30 min and then sonicated; refrigerated centrifugation (10,000 rpm, 30 min, 4° C.), filtered through a 0.2 µm filter membrane to obtain the supernatant crude enzyme solution, and added 20% glycerol for cryopreservation (−20° C.).
The in vitro enzyme catalytic assay system is 100 μL. The reaction system includes: 0.1 mM glycosyl receptor (phloretin or 2-hydroxynaringenin), 0.3 mM UDP glucose, 25 μL supernatant crude enzyme solution, and Buffer A is used to make up the volume to 100 μL, and react at 37° C. for 2 h. After the reaction was completed, an equal volume of methanol was added to terminate the reaction, and HPLC was used for product analysis. HPLC detection conditions: chromatographic column: reverse phase C18 column [SilGreen ODS column (ø 4.6×250 mm)], detection wavelength 280 nm; mobile phase: acetonitrile (0.1% formic acid)-water (0.1% formic acid) mixture gradient elution, with increased ratio from 5:95 to 100:0 within 0 to 20 min, and the flow rate was 1 mL/min.

Row | Molecule | conversion of substrate phloretin to C-glycosylated product (Nothofagin) | 5′ C-glycosylation of 3′-glycosylated phloretin giving phloretin-3′,5′-C-diglucoside
1 | PpCGT1: C-glycosyltransferase from high knot bamboo, SEQ ID NO: 3 (protein, listed as Phyllostachys prominens) MPTSGSRTGGRPHVILLPSAGMGHLVPFSRLAVALSSGHGCDVSVVAVLPTVSAAESRHLQGLLDASPAVRRLDLHLAPFDESEFPGADPFFLRFEAMRRSAPLLGPLLADTGESALVTDIALASVVIPVAKEIHLPCYVLFTASAAMLSFCAYFPTYLDTNAGRVVGDVDIPGVYRIPKASIPQALHDRNHLFTRQFVANGQDLAKADGVLVNTFDALELEAVTALRQGSVAAGFPPVFSVGPLVTVNLPAGEAAKESGNDYMYWLDAQPARSVVYVSFGSRKAISRNQVRELAVGLEASGQRFLWVVKSTVVDRDDSAELSELLDEGFLERVQGRGLVTKAWVEQEEVLKHESIGLFISHCGWNSVTEAAASGVPVLAWPRFGDQRVNAGVVARGGLGVWVERWSWEGEEGVVSGEEIAEKVKAVMADETVRKKAASVGEAAVKEFADGGTSYRSLTEFVRRCRDLAVLD | can convert the substrate phloretin to a product having a shorter retention time | –
2 | OsCGT: C-glycosyltransferase from Japonica rice, SEQ ID NO: 19 (protein, Oryza Sativa japonica) MPSSGDAAGRRPHVVLIPSAGMGHLVPFGRLAVALSSGHGCDVSLVTVLPTVSTAESKHLDALFDAFPAVRRLDFELAPFDASEFPSADPFFLRFEAMRRSAPLLGPLLTGAGASALATDIALTSVVIPVAKEQGLPCHILFTASAAMLSLCAYFPTYLDANAGDGGGVGDVDIPGVYRIPKASIPQALHDPNHLFTRQFVANGRSLTSAAGILVNTFDALEPEAVAALQQGKVASGFPPVFAVGPLLPASNQAKDPQANYMEWLDAQPARSVVYVSFGSRKAISGEQLRELAAGLETSGHRFLWVVKSTVVDRDDAAELGELLGEGFLKRVEKRGLVTKAWVDQEEVLKHESVALFVSHCGWNSVTEAAASGVPVLALPRFGDQRVNSGVVARAGLGVWADTWSWEGEAGVIGAEEISEKVKAAMADEALRRKAASLAKAAAKAVAGGGSSHRCLVEFARLCQGGTCRTN | can convert the substrate phloretin to a product having a shorter retention time | can catalyze the glycosylation of the 3′-glycosylated phloretin at the 5′ position
3 | SbCGT1: C-glycosyltransferase from Sorghum, SEQ ID NO: 6 (protein, Sorghum bicolor) MAPPATKSLGELDGGARPHVMFIPSAGMGHLLPFFRVIAALAAHDVVDISVVTVLPTVSAAEADHFASLFAALPRVSRVDFHLLPFDASSEFPGHDPFLLRWEALRRSAHLFRPLIAGAAGPRVSAVVTDVTLTSHVIPIAKELGVQCHVLFVSCATMLSLAAYTPVHLDKKNKGEHGPGVGVGVGVGDVDIPGVRRIPQSYLPQPLLDLNKLFTKQFIDNGREIINADGFLVNTFDALEPVALAALRDGKVVAGFPPVYAIGPLRSKEEEATTGSPPVAWLDEQPARSVVYVAFGNRNAVSLEQIREIAAGLEASGCRFLWVLKTTTVDRDDTAELTDDVLGEGFLERVQGRGLVTKAWVDQEAVLKHASVGLFLSHSGWNSVTEAAAAGVPLLAWPRGGDHRVNATVVVSGGVGVWMEQWSWDGEDWLVTGEEIGKKVKEVMSDAAVRARATRTGEEAAKAVAEGGTSYRSMQKFISSLKAHCSP | can convert the substrate phloretin to a product having a shorter retention time | can catalyze the glycosylation of the 3′-glycosylated phloretin at the 5′ position
4 | OsCGT2: C-glycosyltransferase from Japonica rice, SEQ ID NO: 5 (protein, Oryza Sativa japonica) MCSAATPNSGDVRATPGSSRPHVVLLPSAGMGHLVPFTRLAAALCSGHGCDVSLVAAVPTVSSAEARHLAAHFTAFPAVRRLELDLASLDVSEFAGADPFYVRYEAIRRSASLLAPLLAGGASAAASALVADIALASVVIPVAKDLRLPCYVFFTASATMFSFLAYLPTYLDANAGGGHAIGDVDVPGVCRVPTSSVPQALHDPDDIFTRQFIANARSLANADGLVVNAFDALEPEAVAALRQGTVAAGLPPVFAVGPLSPAPIPAKDSGSYLPWLDAQPARSVVYVSFGSRKALPRDQLSELAAGLEASGHRFLWVVKGAVVDRDDAGELTDLLGEAFLQRIHGRGLVTMAWVRQEEVLNHPSVGLFISHCGWNSVTEAAASGVPVVAWPRFADQRVNAGVVARAGIGVWVDTWSWEGEDDGVVSAEDIAGKVRSAMADEGVRKAAASVREAAARAVAAGGSSYRSLAELVRRCRDGLVITNGM | can convert the substrate phloretin to a product having a shorter retention time | –
5 | PhCGT2: C-glycosyltransferase from moso bamboo, SEQ ID NO: 4 (protein, listed as Phyllostachys edulis) MASRAMPSSSDRTGGAPRVVLLPSAGMGHLVPFGRLAVALSSGHACDVSVVTVLPTVSSAESKHLQGLFDAFPAVRRLDLHLAPFDASEFSDADPFYVRYEAVRRSAPLLGPLLADADASALVADIALASVVIPVAKELLIPCYIFFTASATMFSLLAYFPTYLHSNAGHSIGDVDVPGVYRIPMSSIPQALHDPNNLFTQQFVANGRSLAEADGLLVNTFDAFEPEAVTALRHGTVAPGFPPVFALGPLSPVGFPAGEAARESGNYTTWLDAQPARSVVYVSFGSRKALLRDQLSELAAGLEASGCRFLWVVKGTVVDRDDDRELRELLGEVFLQRVNGRALVTKAWVEQEEVLKHPAVGLFISHCGWNSVTEATVSGVPVLAWPRFADQRVSAGVVARRGLGVWVERWSWEGEERVVTGDEIAEKVKSVLADETLRKNSTMVREAAAAAVATGGTSYRSLAKFVRRCST | can convert the substrate phloretin to a product having a shorter retention time | –
6 | SiCGT2: C-glycosyltransferase from millet, SEQ ID NO: 18 (protein, listed as Setaria italica) MSSPPPPNSTSDDCQGTAATPHIVLFPSAGMGHLVPFTRLAVALSAGHCCDVSLVTALPTVSSAESCHIAALFAAFPAVRRLDLRLAPLDASSEFPGADPFYVRYEALRRSTPLLLGPLLAGASASALVADIALASVAIPVARELRVPCYVFFTASATMLSFKAYFPTYLDANGGAGHSVGDVDVPGVCRVPRSSIPQALHDPDDIFTRQFVANGRALVAADGLLVNAFEAMEPEAVAALLGGSVVASLPPVFAVGPLMPLNLREAAEEQGNYRAWLDAQPPRSVVYVSFGSRKALARDQIRELAAWLEACGHRFLWVVKGAVVDRDDACELSDLLGEGFQRRVEGRGLVTKSWVEQDEVLRHPAVGLFVSHCGWNSVTEAAANGVPVLAWPRFADQRVNARVVARAGFGVWVERWSWEGEEAVVGAEEIAEQVVAAMGDQAVAEKAASVRDEAARAVADGGTSQQSLAEFVRRCRGGLAGPGTDLGRTWTARG | can convert the substrate phloretin to a product having a shorter retention time | –
7 | ZmCGT: C-glycosyltransferase from maize, SEQ ID NO: 20 (protein, Zea mays) MAANGGDHTSARPHVVLLPSAGMGHLVPFARLAVALSEGHGCNVSVAAVQPTVSSAESRLLDALFVAAAPAVRRLDFRLAPFDESEFPGADPFFLRFEATRRSAPLLGPLLDAAEASALVTDIVLASVALPVARERGVPCYVLFTSSAAMLSLCAYFPAYLDAHAAAGSVGVGVGNVDIPGVFRIPKSSVPQALHDPDHLFTQQFVANGRCLVACDGILVNTFDAFEPDAVTALRQGSITVSGGFPPVFTVGPMLPVRFQAEETADYMRWLSAQPPRSVVYVSFGSRKAIPRDQLRELAAGLEASGKRFLWVVKSTIVDRDDTADLGGLLGDGFLERVQGRAFVTMGWVEQEEILQHGSVGLFISHCGWNSLTEAAAFGVPVLAWPRFGDQRVNAALVARSGLGAWEEGWTWDGEEGLTTRKEVAKKIKGMMGYDAVAEKAAKVGDAAAAAIAKCGTSYQSLEEFVQRCRDAERK | can convert the substrate phloretin to a product having a shorter retention time | can catalyze the glycosylation of the 3′-glycosylated phloretin at the 5′ position

From patent US20230066984A1, “New Carbon Glycoside Glycosyltransferase and Use Thereof” (CAS Center for Excellence in Molecular Plant Sciences, priority 2020, published 2023)
